From PMC7241714, “Structure-function investigation of 3-methylaspartate ammonia lyase reveals substrate molecular determinants for the deamination reaction” (PLoS ONE, 2020)
Like-named read-outs stand apart in the source and are kept apart here.

Legend:
[1] = target: T1, 3-methylaspartate ammonia lyase (CaMAL) (Citrobacter amalonaticus, UniProt O66145); assay: steady-state inhibition kinetics of 3-methylaspartate deamination (UV assay); format: biochemical
T1 construct: C-terminal His-tag

purified protein [2] = substrate: C[C@H](C(=O)O)[C@H](N)C(=O)O; assay: purified protein; format: biochemical, Citrobacter amalonaticus; conditions: Mg2+ catalytic pocket; pH 9.0; 30.0 °C
purified protein [3] = substrate: C[C@H](C(=O)O)[C@H](N)C(=O)O; assay: purified protein; format: biochemical, Clostridium tetanomorphum; conditions: Mg2+; pH 9.0; 30.0 °C
purified protein [4] = substrate: N[C@@H](CC(=O)O)C(=O)O; assay: purified protein; format: biochemical, Clostridium tetanomorphum; conditions: Mg2+; pH 9.0; 30.0 °C
purified protein [5] = substrate: C[C@H](C(=O)O)[C@H](N)C(=O)O; assay: purified protein; format: biochemical, Carboxydothermus hydrogenoformans; conditions: Mg2+; pH 9.0; 30.0 °C

With `NCCC[C@H](N)CC(=O)O` [β-lysine] the Ki [1] was 1.7 ± 0.4 mM.

Work on `NC(CC(=O)O)CC(=O)O` [β-glutamic acid] yielded a Ki ([1]; read-out: Ki) of 71 ± 3 mM.

B1: 3-methylaspartate ammonia lyase (CaMAL) (Citrobacter amalonaticus) (protein)
chain: MKIKQALFTAGYSSFYFDDQQAIKNGAGHDGFIYTGDPVTPGFTSVRQAGECVSVQLILENGAVAVGDCAAVQYSGAGGRDPLFLAEHFIPFLNDHIKPLLEGRDVDAFLPNARFFDKLRIDGNLLHTAVRYGLSQALLDATALASGRLKTEVVCDEWQLPCVPEAIPLFGQSGDDRYIAVDKMILKGVDVLPHALINNVEEKLGFKGEKLREYVRWLSDRILSLRSSPRYHPTLHIDVYGTIGLIFDMDPVRCAEYIASLEKEAQGLPLYIEGPVDAGNKPDQIRMLTAITKELTRLGSGVKIVADEWCNTYQDIVDFTDAGSCHMVQIKTPDLGGIHNIVDAVLYCNKHGMEAYQGGTCNETEISARTCVHVALAARPMRMLIKPGMGFDEGLNIVFNEMNRTIALLQTKD
notes: C-terminal His-tag
B1 gave a Km (purified protein [2]) of 1000 ± 60 µM and a kcat (purified protein [2]) of 17.6 ± 0.3 s⁻¹.

B2: 3-methylaspartate ammonia lyase (CtMAL) (Clostridium tetanomorphum) (protein)
chain: MKIVDVLCTPGLTGFYFDDQRAIKKGAGHDGFTYTGSTVTEGFTQVRQKGESISVLLVLEDGQVAHGDCAAVQYSGAGGRDPLFLAKDFIPVIEKEIAPKLIGREITNFKPMAEEFDKMTVNGNRLHTAIRYGITQAILDAVAKTRKVTMAEVIRDEYNPGAEINAVPVFAQSGDDRYDNVDKMIIKEADVLPHALINNVEEKLGLKGEKLLEYVKWLRDRIIKLRVREDYAPIFHIDVYGTIGAAFDVDIKAMADYIQTLAEAAKPFHLRIEGPMDVEDRQKQMEAMRDLRAELDGRGVDAELVADEWCNTVEDVKFFTDNKAGHMVQIKTPDLGGVNNIADAIMYCKANGMGAYCGGTCNETNRSAEVTTNIGMACGARQVLAKPGMGVDEGMMIVKNEMNRVLALVGRRK
notes: C-terminal His-tag
B2 was tested, and the Km (purified protein [3]) was 3990 ± 610 µM, the kcat (purified protein [3]) was 7.6 ± 0.4 s⁻¹ and the Km (purified protein [4]) was 67000 ± 6000 µM. The kcat (purified protein [4]) was 1.6 ± 0.1 s⁻¹.

B3: 3-methylaspartate ammonia lyase (ChMAL) (Carboxydothermus hydrogenoformans Z-2901) (protein)
chain: MRIKDVLFVKGSSGFYFDDQKAIKSGAVTDGFTYKGKPLTPGFSRVRQGGEAVSIMLFLENGEIAVGDCVAVQYSGVDGRDPVFLADNFIEVLEEEIKPRLVGYNLVRFREAARYFTNLTDKRGKRYHTALRYGLTQALLDAVAKINRTTMAEVIAEEYGLDLTLNPVPLFAQSGDDRYINADKMILKRVDVLPHGLFNHPAKTGEEGKNLTEYALWLKQRIKTLGDHDYLPVFHFDVYGTLGTVFNDNLDRIADYLARLEEKVAPHPLQIEGPVDLGSKERQIEGLKYLQEKLITLGSKVIIVADEWCNNLSDIKEFVDAGAGGMVQIKSPDLGGVNDIIEAVLYAKEKGTGAYLGGSCNETDVSAKITVHVGLATGPAQLLVKPGMGVDEGLTIMRNEMMRTLAILQRNKVTFQKKVG
notes: C-terminal His-tag
Molecule B3 has a Km (purified protein [5]) of 1380 ± 170 µM and a kcat (purified protein [5]) of 66 ± 2 s⁻¹.
